Test results published in patent US20190328889A1.

Experiments:
[1] = target: Fc receptors on U937 cells (human; IFNγ-activated or non-activated) (human); assay: flow cytometry competition on IFNγ-activated U937 cells; competitor 1 µM BDB; Nip228 at 0.001-5 µM
[2] = target: Fc receptors on U937 cells (human; IFNγ-activated or non-activated) (human); assay: flow cytometry competition on IFNγ-activated U937 cells; competitor 1 µM cp33; Nip228 at 0.001-5 µM

IgG1 concentration above which the peptide is displaced [1]: 10 nM
IgG1 concentration above which the peptide is displaced [2]: 10 nM
Substance: control monoclonal human IgG1 (Nip228, MedImmune Ltd), unlabelled (antibody)
